Assay results published in patent US9809835B2, “Quantitative control of sialylation” (Roche Diagnostics Operations, Inc., priority 2013, dated 2017).

Columns and labels:
[1] = target: T1, Δ89 hST6Gal-I (Homo sapiens, UniProt P15907); experiment: Inhibition of sialidase activity of Δ89 hST6Gal-I by CTP; assay type: biochemical
T1 construct: the construct of Epo-AP-Δ89 hST6Gal-I was secreted without the N-terminal amino acids AP; Erythropoietin signal peptide (Epo) (N, cleaved yes); AP spacer (two amino acids) (N, cleaved yes); made in house; host or cells: HEK293 (transient gene expression, secreted)
T1 sequence (P15907 90-406): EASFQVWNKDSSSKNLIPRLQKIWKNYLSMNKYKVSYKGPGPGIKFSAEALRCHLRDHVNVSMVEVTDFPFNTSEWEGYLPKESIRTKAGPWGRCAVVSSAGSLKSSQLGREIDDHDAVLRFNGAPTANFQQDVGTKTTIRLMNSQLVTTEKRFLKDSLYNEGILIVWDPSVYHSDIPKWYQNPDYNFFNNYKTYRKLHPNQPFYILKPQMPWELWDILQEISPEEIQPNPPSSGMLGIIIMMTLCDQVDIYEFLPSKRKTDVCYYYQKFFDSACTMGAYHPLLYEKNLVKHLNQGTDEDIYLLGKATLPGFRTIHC
Protocol: The compound cytidine triphosphate (CTP) is a potent inhibitor of sialyltransferases (Scudder P R & Chantler E N B B A 660 (1981) 136-141). […] After 7 h of incubation the G2+2SA content was 94%. […] At different times samples were taken and the content of G2+0SA, G2+1SA and G2+2SA was determined by mass spectrometry. […] After 72 h of incubation 73% of G2+2SA were still present.

[2] = tested on: MAB<IL-1R>; experiment: Sialylation of humanized monoclonal antibody MAB<IL-1R> using Δ89 hST6Gal-I, glycan content by mass spectrometry; assay type: biochemical
Protocol: A highly galactosylated humanized monoclonal antibody IgG4 MAB<IL-1R>(WO 2005/023872) was used in sialylation experiments. […] The samples were incubated at 37° C. for a defined time. To stop the reaction the samples were frozen at −20° C. For mass analysis 100 μl denaturing buffer (6 M guanidinium chloride) and 30 μl TCEP (0.1 mM, diluted in denaturing buffer) were added to the samples and the samples were incubated at 37° C. for 1 h. The sample were buffered in electrospray-medium (20% ACN, 1% FA) using pre-equilibrated illustra™ Nap5-Columns (GE-Healthcare). Samples were analyzed by electrospray ionization mass spectrometry and the content of G2+0SA, G2+1SA and G2+2SA N-glycans was determined. A Micromass Q-Tof Ultima and a Synapt G2 HDMS device (Waters UK) were used, the software used was MassLynx V 4.1. To determine the kinetics of the sialylation the reaction was incubated up to 72 h.

## Nc1ccn([C@@H]2O[C@H](COP(=O)(O)OP(=O)(O)OP(=O)(O)O)[C@@H](O)[C@H]2O)c(=O)n1 [CTP, cytidine triphosphate]
[1]; CTP 0.67 mM, compared to inhibitor-free conditions
  degradation of G2+2SA caused by the sialidase activity: significantly reduced
[1]; after 72 h of incubation, CTP added after 7 h, final concentration 0.67 mM
  G2+2SA still present: 73%

B1: Δ89 hST6Gal-I: N-terminally truncated human β-galactoside-α-2,6-sialyltransferase I, positions 1 to 89 of SEQ ID NO:1 deleted; amino acid sequence of SEQ ID NO:2 (protein)
chain: EASFQVWNKDSSSKNLIPRLQKIWKNYLSMNKYKVSYKGPGPGIKFSAEALRCHLRDHVNVSMVEVTDFPFNTSEWEGYLPKESIRTKAGPWGRCAVVSSAGSLKSSQLGREIDDHDAVLRFNGAPTANFQQDVGTKTTIRLMNSQLVTTEKRFLKDSLYNEGILIVWDPSVYHSDIPKWYQNPDYNFFNNYKTYRKLHPNQPFYILKPQMPWELWDILQEISPEEIQPNPPSSGMLGIIIMMTLCDQVDIYEFLPSKRKTDVCYYYQKFFDSACTMGAYHPLLYEKNLVKHLNQGTDEDIYLLGKATLPGFRTIHC
modifications: delta89 truncation variant of hST6Gal-I
[2]; after 2 hours of incubation, 37° C., 30 μg enzyme/300 μg MAB<IL-1R>, CMP-NANA donor
  content of the bi-sialylated form G2+2SA: 88%
[2]; after 7 h of incubation, before addition of CTP (Example 11)
  G2+2SA content: 94%
[2]; after an incubation of 48 h, 37° C., 30 μg enzyme/300 μg MAB<IL-1R>, CMP-NANA donor
  G2+1SA content: 71%
[2]; t=8 h
  dominant glycan species of MAB<IL-1R> (mass spectrum): G2+2SA is the dominant form
[2]; t=48 h
  dominant glycan species of MAB<IL-1R> (mass spectrum): G2+1SA is the most abundant species
